Data from publication PMC6002714, “Bovine Herpesvirus 1 UL49.5 Interacts with gM and VP22 To Ensure Virus Cell-to-Cell Spread and Virion Incorporation: Novel Role for VP22 in gM-Independent UL49.5 Virion Incorporation” (Journal of Virology, 2018).

Molecular target: the molecule itself
Assay: non-reducing SDS-PAGE with immunoblot; lysates of virus-infected MDBK cells separated by SDS-PAGE without DTT (compared with +DTT), immunoblotted with anti-UL49.5 or anti-gM; shows only covalently (disulfide) linked complexes

B1: BHV-1 envelope glycoprotein M (gM) (natural protein)
chain: MAGSAQPAAVHWRLWLAQVGVFAALALLLLITLIGAASPGAGLPCFYAAIVNYNARNLSADGGAWAQRELGARHPALFLETPTTAAFSAYTAVVLLAVAAFDVAAAIIIRRENSGGFAAAYHMNALATLATPPGALLLGALAAWTLQAAVLLLSHKIMVLAAATYLAHAGAAAAFVGLFCTAGLPGAEYAQAVHALRERSPRAHRLLGPGRAVMINLAGGLLALIIGTAPLMLGQLLGAGLGLSLAQTVVAGVTVFCLAAVLFLVLTELVLSRYTQVLPGPAFGTLVAASCIAVASHDYFHQLRGVVRTQAPGLPLGVKLALAGVALLAVAMLVLRLVRACLHHRRKGSAFYGHVSAARQQAARYIARARSSRGMAPLEGDAAALLDRGVASDDEEAVYEADARPARQPYR
notes: glycoprotein M of bovine herpesvirus type 1, encoded by the UL10 gene; gM open reading frame nt 84816 to 86051 of GenBank JX898220 (complementary strand; residues up to 411); expressed from the viral genome; 36-kDa immature, EndoH-sensitive gM in infections with the C42S mutants; also called 43-kDa mature gM; 36-kDa immature gM; source: BHV-1 wt or UL49.5 mutant virus-infected MDBK cells, in …
  stoichiometry N: 2
